B1: Hairpin Ribozyme (parent)
chain: GUCCUCUUUCACGUGCGCGUGAAAGAGAGAAGUGAACCAGAGAAACACACGUUGUGGUAUAUUACCUGGUA

Variants of: B1
Assay: self-cleavage, relative activity (ratio to wild type); higher = more cleavage; co-transcriptional

In order of falling self-cleavage:
1. U20C A41C  1.11
2. A28G U53A  1.01
3. C10U C16A  0.887
4. C16U G19C  0.867
5. A23C U58C  0.821
6. G25U C65A  0.735
7. C16U A28U  0.723
8. C16G A24C  0.688
9. A26U G51A  0.661
10. C3A U20G  0.607
11. U7A U58A  0.58
12. G17U C37U  0.564
13. A49G A71G  0.526
14. A28C A71G  0.457
15. C3A A28G  0.453
16. U55A U58C  0.427
17. G17C G25A  0.417
18. U20G C66U  0.411
19. C10G C66U  0.347
20. G19U G42U  0.346
21. A26U U60A  0.328
22. A41G C50G  0.325
23. C6U G42U  0.323
24. A23U G40A  0.309
25. C6U A39G  0.304
26. U5A U70A  0.286
27. C18G A30C  0.275
28. C65G  0.273
29. U53A G68C  0.249
30. C50A U70C  0.244
31. U2A G51A  0.233
32. U33A A45C  0.231
33. C10U A59C  0.227
34. C37G C65G  0.225
35. C10G C37A  0.22
36. A47C G54A  0.208
37. U55A C65A  0.204
38. U53A G68U  0.2
39. G19A A59G  0.2
40. G19A U67G  0.199
41. A31G G69C  0.199
42. U33C A43G  0.196
43. U67A A71U  0.194
44. C3A A47G  0.191
45. G15U U33G  0.18
46. U5G A22U  0.176
47. C4A C38G  0.175
48. G1U G51C  0.175
49. G19C U55A  0.17
50. A39U C46G  0.164
51. A26U A28C  0.155
52. C50A G69A  0.152
53. U8G G27C  0.139
54. G15A A44G  0.139
55. A39U U63G  0.137
56. U8A C46A  0.133
57. C6A G56C  0.128
58. G27U G68A  0.128
59. A44C U58G  0.128
60. C3U U33G  0.126
61. G68C A71U  0.126
62. U33G A35G  0.126
63. U63G C66G  0.125
64. A45U C46U  0.12
65. C4G G40A  0.114
66. A23G U63A  0.113
67. A45G C48G  0.113
68. G25A A45U  0.111
69. A39G C50G  0.111
70. U20C A45C  0.105
71. G56A U67G  0.104
72. U14C G27U  0.102
73. U8G G32U  0.0934
74. U2G G56U  0.0924
75. A39G A43G  0.0922
76. G29C A30C  0.0921
77. G27A G32A  0.0917
78. C18G A30U  0.0888
79. C6G G40C  0.0776
80. C3G C46A  0.0768
81. C6G C48U  0.0659
82. A22U G56U  0.063
83. U33C A39U  0.0555
84. U5G G27C  0.0408

From the RNAGym collection of RNA variant scans (doi:10.7554/elife.80360)
